Here are results for 25 molecules from patent US7183387 (Genentech, dated 2007).

To fix the notation:
T1: human FcγRIIA-R131 α subunit extracellular domain-6His-GST fusion (human, UniProt P12318 34-217)
T1 construct: also called FcγRIIA-Arg131; not shown: glutathione S-transferase (GST)
T1 sequence: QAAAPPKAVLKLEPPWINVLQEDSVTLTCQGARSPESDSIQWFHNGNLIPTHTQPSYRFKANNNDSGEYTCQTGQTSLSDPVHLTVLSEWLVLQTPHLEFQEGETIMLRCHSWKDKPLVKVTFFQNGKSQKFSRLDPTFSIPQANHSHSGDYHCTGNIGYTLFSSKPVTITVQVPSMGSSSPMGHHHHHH

T2: human FcγRIIB α subunit extracellular domain-6His-GST fusion (human, UniProt P31994 43-217)
T2 construct: not shown: glutathione S-transferase (GST)
T2 sequence: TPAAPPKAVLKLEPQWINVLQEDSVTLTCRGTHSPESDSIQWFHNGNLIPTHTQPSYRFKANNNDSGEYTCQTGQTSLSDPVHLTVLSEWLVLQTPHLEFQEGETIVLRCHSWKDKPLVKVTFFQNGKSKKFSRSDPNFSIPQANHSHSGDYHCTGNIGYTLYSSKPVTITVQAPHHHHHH

T3: human FcγRIIB α subunit extracellular domain-His6-GST fusion (human, UniProt P31994 43-217)
T3 construct: extracellular domain; also called CD32; not shown: glutathione S transferase (GST)
T3 sequence: T2 sequence

T4: human FcγRIIA-Arg131 α subunit extracellular domain-His6-GST fusion (human, UniProt P12318 34-217)
T4 construct: extracellular domain; also called FcγRIIA-R131; not shown: glutathione S transferase (GST)
T4 sequence: T1 sequence

B1: anti-IgE E27 IgG1 Ala327Gln (antibody)
heavy: not shown
light: DIQLTQSPSSLSASVGDRVTITCRASKPVDGEGDSYLNWYQQKPGKAPKLLIYAASYLESGVPSRFSGSGSGTDFTLTISSLQPEDFATYYCQQSHEDPYTFGQGTKVEIKRTVAAPSVFIFPPSDEQLKSGTASVVCLLNNFYPREAKVQWKVDNALQSGNSQESVTEQDSKDSTYSLSSTLTLSKADYEKHKVYACEVTHQGLSSPVTKSFNRGEC
B2: anti-IgE E27 IgG1 Ala327Gly (antibody)
heavy: not shown
light: B1 light
B3: anti-IgE E27 IgG1 Asn315Ala (antibody)
heavy: not shown
light: B1 light
B4: anti-IgE E27 IgG1 Asn276Ala (antibody)
heavy: not shown
light: B1 light
B5: anti-IgE E27 IgG1 Ala339Thr (antibody)
heavy: not shown
light: B1 light
B6: anti-IgE E27 IgG1 Asn286Ala (antibody)
heavy: not shown
light: B1 light
B7: anti-IgE E27 IgG1 Asp265Ala (antibody)
heavy: not shown
light: B1 light
notes: also called G14 D265A
B8: anti-IgE E27 IgG1 Ala327Ser (antibody)
heavy: not shown
light: B1 light
B9: anti-IgE E27 IgG1 Ala378Gln (antibody)
heavy: not shown
light: B1 light
B10: anti-IgE E27 IgG1 Arg255Ala (antibody)
heavy: not shown
light: B1 light
B11: anti-IgE E27 IgG1 Asp280Ala (antibody)
heavy: not shown
light: B1 light
B12: anti-IgE E27 IgG1 Arg301Ala (antibody)
heavy: not shown
light: B1 light
B13: anti-IgE E27 IgG1 Arg292Ala (antibody)
heavy: not shown
light: B1 light
notes: also called R292(309)A
B14: E27 IgG1 variant S324(343)N (antibody)
heavy: not shown
light: B1 light
notes: also called IG2 213
B15: E27 IgG1 variant Y296(313)H (antibody)
heavy: not shown
light: B1 light
B16: E27 IgG1 variant S324(343)Q (antibody)
heavy: not shown
light: B1 light
notes: also called IG2 214
B17: E27 IgG1 variant V303(322)T (antibody)
heavy: not shown
light: B1 light
B18: E27 IgG1 variant T256(269)G (antibody)
heavy: not shown
light: B1 light
notes: also called IG2 176
B19: E27 IgG1 variant T335(354)Q (antibody)
heavy: not shown
light: B1 light
notes: also called IG2 171
B20: E27 IgG1 variant V303(322)L (antibody)
heavy: not shown
light: B1 light
notes: also called IG2 150
B21: E27 IgG1 variant T256(269)N (antibody)
heavy: not shown
light: B1 light
B22: E27 IgG1 variant T335(354)E (antibody)
heavy: not shown
light: B1 light
notes: also called IG2 194
B23: E27 IgG1 variant Y296(313)W (antibody)
heavy: not shown
light: B1 light
notes: also called IG2 186
B24: E27 IgG1 variant T335(354)K (antibody)
heavy: not shown
light: B1 light
notes: also called IG2 195
B25: anti-IgE E27 IgG1 Asn297Ala (antibody)
heavy: not shown
light: B1 light
notes: removes the Asn-linked glycosylation site

T6 sequence (P08637 other isoform, or with tags, fused parts or gaps, form in doubt): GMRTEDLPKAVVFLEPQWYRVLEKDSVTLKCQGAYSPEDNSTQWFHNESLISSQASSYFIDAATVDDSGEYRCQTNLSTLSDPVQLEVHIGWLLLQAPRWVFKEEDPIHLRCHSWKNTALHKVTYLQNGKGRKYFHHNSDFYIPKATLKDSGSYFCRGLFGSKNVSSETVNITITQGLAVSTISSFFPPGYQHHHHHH
T8 sequence (P08637 other isoform, or with tags, fused parts or gaps): as the sequence (P08637 other isoform, or with tags, fused parts or gaps, form in doubt) above
T7 sequence (P55899 24-297 limits assumed, chain 1 of 2): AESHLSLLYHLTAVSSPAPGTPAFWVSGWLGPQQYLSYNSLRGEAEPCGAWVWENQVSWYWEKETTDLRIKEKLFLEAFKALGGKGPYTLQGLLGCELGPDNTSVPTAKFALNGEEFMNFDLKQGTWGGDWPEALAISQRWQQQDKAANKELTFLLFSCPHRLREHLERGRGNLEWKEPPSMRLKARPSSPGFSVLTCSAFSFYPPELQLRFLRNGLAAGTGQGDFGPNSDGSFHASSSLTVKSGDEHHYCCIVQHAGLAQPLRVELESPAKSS
T7 sequence (P61769 21-119 limits assumed, chain 2 of 2): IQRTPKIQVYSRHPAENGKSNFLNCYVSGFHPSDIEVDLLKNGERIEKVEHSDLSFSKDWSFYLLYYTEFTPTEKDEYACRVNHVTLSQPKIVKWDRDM

The first assay deals with T5, human FcγRIA α subunit extracellular domain-His6-GST fusion (human, UniProt P12314 16-292).
T5 construct: extracellular domain; also called GST-FcγRIA; CD64; not shown: glutathione S transferase (GST)
T5 sequence (P12314 other isoform, or with tags, fused parts or gaps): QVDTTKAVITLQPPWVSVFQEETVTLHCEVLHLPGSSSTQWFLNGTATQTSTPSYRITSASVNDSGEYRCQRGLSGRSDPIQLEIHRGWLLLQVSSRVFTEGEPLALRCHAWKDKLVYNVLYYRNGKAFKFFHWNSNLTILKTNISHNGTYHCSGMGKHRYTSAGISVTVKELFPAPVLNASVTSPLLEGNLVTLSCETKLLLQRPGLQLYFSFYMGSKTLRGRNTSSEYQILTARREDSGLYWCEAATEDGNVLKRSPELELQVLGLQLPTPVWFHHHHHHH
The assay can be described thus: FcγRI ELISA and THP-1 cells, averaged.
For the molecule B1, the “ratio to native IgG1” value was determined as 0.6 ratio.

Turning to B2, the “ratio to native IgG1” value amounted to 0.96 ratio.

Regarding B3, the “ratio to native IgG1” value amounted to 0.99 ratio.

Consider B4, for which the “ratio to native IgG1” value amounted to 1.05 ratio.

B5: the “ratio to native IgG1” value amounted to 1.06 ratio.

For B6, the “ratio to native IgG1” value is 0.95 ratio.

Turning to B7, the “ratio to native IgG1” value came out at 0.16 ratio.

For B8, the “ratio to native IgG1” value stood at 0.86 ratio.

Take B9: the “ratio to native IgG1” value was determined as 1.06 ratio.

Take B10: the “ratio to native IgG1” value amounted to 0.99 ratio.

With B11, the “ratio to native IgG1” value turned out to be 1.04 ratio.

Regarding B12, the “ratio to native IgG1” value turned out to be 1.06 ratio.

With B13, the “ratio to native IgG1” value is 0.95 ratio.

A further assay concerns the target T6, human FcγRIIIA-F158 α subunit extracellular domain-6His-GST fusion (human, UniProt P08637 17-208).
T6 construct: also called FcγRIIIA-Phe158; not shown: glutathione S-transferase (GST)
Nature of the assay: ELISA, IgG:IgE hexamers on receptor-GST.
Turning to B14, the “ratio to native IgG1” value is 0.97.

With B15, the “ratio to native IgG1” value came to 0.92.

As to B16, the “ratio to native IgG1” value amounted to 0.78.

For B17, the “ratio to native IgG1” value was found to be 0.2.

Consider B18, for which the “ratio to native IgG1” value was 0.96.

Consider B19, for which the “ratio to native IgG1” value stood at 0.84.

On to B20, for which the “ratio to native IgG1” value turned out to be 0.76.

With B21, the “ratio to native IgG1” value was 1.13.

Regarding B22, the “ratio to native IgG1” value was found to be 1.19.

Turning to B23, the “ratio to native IgG1” value turned out to be 1.38.

Consider B24, for which the “ratio to native IgG1” value amounted to 1.3.

For a further assay, the target named is T1, human FcγRIIA-R131 α subunit …. Nature of the assay: ELISA, IgG:IgE hexamers on receptor-GST. In general terms: ELISA stands for enzyme-linked immunosorbent assay.
As to B14, the “ratio to native IgG1” value is 1.15.

For B15, the “ratio to native IgG1” value was found to be 0.9.

On to B16, for which the “ratio to native IgG1” value came to 0.82.

B17: the “ratio to native IgG1” value came out at 0.64.

On to B18, for which the “ratio to native IgG1” value is 1.1.

Regarding B19, the “ratio to native IgG1” value is 0.86.

Turning to B20, the “ratio to native IgG1” value was found to be 0.89.

For the molecule B21, the “ratio to native IgG1” value came to 1.03.

Regarding B22, the “ratio to native IgG1” value is 1.24.

As to B23, the “ratio to native IgG1” value was 0.96.

For the molecule B24, the “ratio to native IgG1” value came to 1.19.

A further assay concerns the target T2, human FcγRIIB α subunit extracellular …. The assay can be described thus: ELISA, IgG:IgE hexamers on receptor-GST.
As to B14, the “ratio to native IgG1” value amounted to 1.09.

Consider B15, for which the “ratio to native IgG1” value came to 0.81.

On to B16, for which the “ratio to native IgG1” value is 0.83.

In the case of B17, the “ratio to native IgG1” value is 0.34.

For B18, the “ratio to native IgG1” value amounted to 1.06.

Regarding B19, the “ratio to native IgG1” value was found to be 0.79.

For B20, the “ratio to native IgG1” value was found to be 0.73.

With B21, the “ratio to native IgG1” value stood at 0.89.

Take B22: the “ratio to native IgG1” value stood at 1.3.

Turning to B23, the “ratio to native IgG1” value is 0.93.

B24: the “ratio to native IgG1” value is 1.14.

Another assay has as its target T7, human neonatal Fc receptor (FcRn), biotinylated (human, UniProt P55899 24-297; P61769 21-119, biotinylated (biotin-X-NHS)).
T7 construct: captured on streptavidin plates
The assay can be described thus: FcRn ELISA, pH 6.0.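 Note: Streptavidin-captured FcRn plates, IgG variants titrated 2 h at pH 6.0, peroxidase anti-human IgG read at 450 nm, variant over standard concentration at the standard curve mid-point absorbance.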
In the case of B1, the “ratio to native IgG1” value was 0.97 ratio.

B3: the “ratio to native IgG1” value is 0.76 ratio.

In the case of B4, the “ratio to native IgG1” value amounted to 1.15 ratio.

In the case of B25, the “ratio to native IgG1” value is 0.8 ratio.

For B6, the “ratio to native IgG1” value was determined as 1.24 ratio.

For B7, the “ratio to native IgG1” value came out at 1.23 ratio.

Consider B9, for which the “ratio to native IgG1” value was determined as 1.32 ratio.

As for B10, the “ratio to native IgG1” value is 0.59 ratio.

On to B11, for which the “ratio to native IgG1” value was determined as 0.82 ratio.

In the case of B12, the “ratio to native IgG1” value stood at 0.86 ratio.

Regarding B13, the “ratio to native IgG1” value was 0.81 ratio.

A further assay has as its target T8, human FcγRIIIA-Phe158 α subunit extracellular domain-His6-GST fusion (human, UniProt P08637 17-208).
T8 construct: extracellular domain; also called FcγRIIIA-F158; CD16; not shown: glutathione S transferase (GST)
The assay can be described thus: hexamer ELISA.
For the molecule B1, the “ratio to native IgG1” value turned out to be 0.06 ratio.

As for B2, the “ratio to native IgG1” value stood at 0.36 ratio.

B3: the “ratio to native IgG1” value stood at 1.07 ratio.

For B4, the “ratio to native IgG1” value is 0.95 ratio.

Regarding B25, the “ratio to native IgG1” value was determined as 0.03 ratio.

Turning to B5, the “ratio to native IgG1” value worked out at 1.34 ratio.

Turning to B6, the “ratio to native IgG1” value is 1.05 ratio.

B7: the “ratio to native IgG1” value turned out to be 0.09 ratio.

In the case of B8, the “ratio to native IgG1” value is 0.06 ratio.

With B9, the “ratio to native IgG1” value is 1.19 ratio.

As for B10, the “ratio to native IgG1” value was 0.98 ratio.

B11: the “ratio to native IgG1” value amounted to 1.09 ratio.

For the molecule B12, the “ratio to native IgG1” value was determined as 0.22 ratio.

B13: the “ratio to native IgG1” value was 0.89 ratio.

In the next assay the target is T3, human FcγRIIB α subunit extracellular …. The assay can be described thus: hexamer ELISA.
As for B1, the “ratio to native IgG1” value came to 0.14 ratio.

As to B2, the “ratio to native IgG1” value is 0.83 ratio.

For the molecule B3, the “ratio to native IgG1” value was determined as 1.3 ratio.

B4: the “ratio to native IgG1” value was 1.34 ratio.

B25: the “ratio to native IgG1” value was determined as 0.1 ratio.

In the case of B5, the “ratio to native IgG1” value stood at 1.2 ratio.

For the molecule B6, the “ratio to native IgG1” value was 1.36 ratio.

For the molecule B7, the “ratio to native IgG1” value is 0.13 ratio.

Take B8: the “ratio to native IgG1” value was 0.22 ratio.

Consider B9, for which the “ratio to native IgG1” value amounted to 1.45 ratio.

As to B10, the “ratio to native IgG1” value was 1.59 ratio.

In the case of B11, the “ratio to native IgG1” value was found to be 1.6 ratio.

For B12, the “ratio to native IgG1” value is 1.29 ratio.

Turning to B13, the “ratio to native IgG1” value came out at 0.17 ratio.

Another assay has as its target T4, human FcγRIIA-Arg131 α subunit …. Nature of the assay: hexamer ELISA.
Consider B1, for which the “ratio to native IgG1” value was 0.13 ratio.

For the molecule B2, the “ratio to native IgG1” value is 0.92 ratio.

As for B3, the “ratio to native IgG1” value came out at 1.15 ratio.

As for B4, the “ratio to native IgG1” value was 1.29 ratio.

Regarding B25, the “ratio to native IgG1” value is 0.05 ratio.

Turning to B5, the “ratio to native IgG1” value is 1.09 ratio.

B6: the “ratio to native IgG1” value was 1.24 ratio.

With B7, the “ratio to native IgG1” value stood at 0.07 ratio.

Take B8: the “ratio to native IgG1” value was determined as 0.23 ratio.

Turning to B9, the “ratio to native IgG1” value was determined as 1.4 ratio.

Turning to B10, the “ratio to native IgG1” value amounted to 1.3 ratio.

On to B11, for which the “ratio to native IgG1” value was determined as 1.34 ratio.

For the molecule B12, the “ratio to native IgG1” value came out at 1.14 ratio.

For B13, the “ratio to native IgG1” value was found to be 0.27 ratio.
